Results as given in US10941182 (Amgen, dated 2021).
Starred links: 1 amine or outer side, 2 acyl side, 3 side chain; linkers in the order of their positions; H or OH if unused. Non-standard residues stand in square brackets, D forms with d. Primed or numbered codes have the meaning given here. *: point of attachment. AC4Abu = α-carboxy-4-aminobutyric acid, O=C(C(CCN[*:1])C(=O)[*:3])[*:2]; dBip = N[C@H](Cc1ccc(-c2ccccc2)cc1)C(=O)O; Oic = O=C(O)[C@@H]1C[C@@H]2CCCC[C@@H]2N1; Phe(4-Cl) = N[C@@H](Cc1ccc(Cl)cc1)C(=O)O; dPhe(4-Cl) = N[C@H](Cc1ccc(Cl)cc1)C(=O)O; Phe(4-I) = N[C@@H](Cc1ccc(I)cc1)C(=O)O; γGlu = O=C(O)[C@H](CCC(=O)[*:2])N[*:1]; HOOC(CH2)8CO = O=C(O)CCCCCCCCC(=O)*; d(β3hF) = N[C@@H](CC(=O)O)Cc1ccccc1; NMeR = CN[C@@H](CCCNC(=N)N)C(=O)O; Palmitoyl = CCCCCCCCCCCCCCCC(=O)*; Tridecanoyl = CCCCCCCCCCCCC(=O)*; hArg = N=C(N)NCCCC[C@H](N)C(=O)O; Cha = N[C@@H](CC1CCCCC1)C(=O)O; NMeL = CN[C@@H](CC(C)C)C(=O)O; αMeL = CC(C)C[C@](C)(N)C(=O)O; AC4Abu″ = not defined here; β3hP = O=C(O)C[C@@H]1CCCN1; Nle = CCCC[C@H](N)C(=O)O; Dap = NC[C@H](N)C(=O)O; AEEA = NCCOCCOCC(=O)O; Aib = CC(C)(N)C(=O)O

T1: rat APJ receptor (rat, UniProt Q9JHG3 1-377)
T1 sequence (looked up): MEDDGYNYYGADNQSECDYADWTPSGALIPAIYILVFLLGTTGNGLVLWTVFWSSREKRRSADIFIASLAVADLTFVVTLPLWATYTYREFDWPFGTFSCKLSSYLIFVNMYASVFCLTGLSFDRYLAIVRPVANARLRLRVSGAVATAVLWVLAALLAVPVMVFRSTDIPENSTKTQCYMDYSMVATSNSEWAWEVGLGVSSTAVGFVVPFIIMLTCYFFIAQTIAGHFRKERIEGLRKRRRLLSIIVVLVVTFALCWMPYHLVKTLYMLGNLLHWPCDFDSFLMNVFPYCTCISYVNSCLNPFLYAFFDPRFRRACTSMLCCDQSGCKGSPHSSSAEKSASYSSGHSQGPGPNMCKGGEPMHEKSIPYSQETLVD

T2: human APJ receptor (human, UniProt P35414 1-380)
T2 sequence (looked up): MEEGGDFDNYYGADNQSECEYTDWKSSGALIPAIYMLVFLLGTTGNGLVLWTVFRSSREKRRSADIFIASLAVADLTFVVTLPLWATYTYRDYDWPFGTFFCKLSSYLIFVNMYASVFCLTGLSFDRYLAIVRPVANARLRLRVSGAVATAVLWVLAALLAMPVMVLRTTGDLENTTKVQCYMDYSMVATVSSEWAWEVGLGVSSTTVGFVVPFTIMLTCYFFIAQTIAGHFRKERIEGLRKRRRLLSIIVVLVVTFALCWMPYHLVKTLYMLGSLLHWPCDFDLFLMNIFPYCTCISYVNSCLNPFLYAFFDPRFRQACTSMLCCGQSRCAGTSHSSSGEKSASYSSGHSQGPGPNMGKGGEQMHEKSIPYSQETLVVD

T3: rat APJ receptor (rat, UniProt Q9JHG3 1-377)
T3 sequence (looked up): T1 sequence (looked up)

B1: Apelin polypeptide SEQ ID NO: 380 (peptide)
peptide: Tridecanoyl-[γGlu][AEEA][AEEA]QRP[NMeR][Cha]SHKG[Oic][Nle]P[d(β3hF)]-OH
SMILES: CCCCCCCCCCCCC(=O)N[C@@H](CCC(=O)NCCOCCOCC(=O)NCCOCCOCC(=O)N[C@@H](CCC(N)=O)C(=O)N[C@@H](CCCNC(=N)N)C(=O)N1CCC[C@H]1C(=O)N(C)[C@@H](CCCNC(=N)N)C(=O)N[C@@H](CC1CCCCC1)C(=O)N[C@@H](CO)C(=O)N[C@@H](Cc1c[nH]cn1)C(=O)N[C@@H](CCCCN)C(=O)NCC(=O)N1[C@H](C(=O)N[C@@H](CCCC)C(=O)N2CCC[C@H]2C(=O)N[C@@H](CC(=O)O)Cc2ccccc2)C[C@@H]2CCCC[C@@H]21)C(=O)O
B2: Apelin polypeptide SEQ ID NO: 381 (peptide)
peptide: Tridecanoyl-[γGlu][AEEA][AEEA]QRP[NMeR][Cha]SHKG[Oic][Nle]P[dPhe(4-Cl)]-OH
SMILES: CCCCCCCCCCCCC(=O)N[C@@H](CCC(=O)NCCOCCOCC(=O)NCCOCCOCC(=O)N[C@@H](CCC(N)=O)C(=O)N[C@@H](CCCNC(=N)N)C(=O)N1CCC[C@H]1C(=O)N(C)[C@@H](CCCNC(=N)N)C(=O)N[C@@H](CC1CCCCC1)C(=O)N[C@@H](CO)C(=O)N[C@@H](Cc1c[nH]cn1)C(=O)N[C@@H](CCCCN)C(=O)NCC(=O)N1[C@H](C(=O)N[C@@H](CCCC)C(=O)N2CCC[C@H]2C(=O)N[C@H](Cc2ccc(Cl)cc2)C(=O)O)C[C@@H]2CCCC[C@@H]21)C(=O)O
B3: Apelin polypeptide SEQ ID NO: 410 (peptide)
peptide: Tridecanoyl-[AC4Abu][AEEA][AEEA]QRP[NMeR][Cha]SHKG[Oic][Nle][dPhe(4-Cl)]-OH
SMILES: CCCCCCCCCCCCC(=O)NCCC(C(=O)O)C(=O)NCCOCCOCC(=O)NCCOCCOCC(=O)N[C@@H](CCC(N)=O)C(=O)N[C@@H](CCCNC(=N)N)C(=O)N1CCC[C@H]1C(=O)N(C)[C@@H](CCCNC(=N)N)C(=O)N[C@@H](CC1CCCCC1)C(=O)N[C@@H](CO)C(=O)N[C@@H](Cc1c[nH]cn1)C(=O)N[C@@H](CCCCN)C(=O)NCC(=O)N1[C@H](C(=O)N[C@@H](CCCC)C(=O)N[C@H](Cc2ccc(Cl)cc2)C(=O)O)C[C@@H]2CCCC[C@@H]21
B4: Apelin polypeptide SEQ ID NO: 409 (peptide)
peptide: Tridecanoyl-[AC4Abu][AEEA][AEEA]QRP[NMeR][Cha]SHKG[Oic][Nle][Phe(4-Cl)]-OH
SMILES: CCCCCCCCCCCCC(=O)NCCC(C(=O)O)C(=O)NCCOCCOCC(=O)NCCOCCOCC(=O)N[C@@H](CCC(N)=O)C(=O)N[C@@H](CCCNC(=N)N)C(=O)N1CCC[C@H]1C(=O)N(C)[C@@H](CCCNC(=N)N)C(=O)N[C@@H](CC1CCCCC1)C(=O)N[C@@H](CO)C(=O)N[C@@H](Cc1c[nH]cn1)C(=O)N[C@@H](CCCCN)C(=O)NCC(=O)N1[C@H](C(=O)N[C@@H](CCCC)C(=O)N[C@@H](Cc2ccc(Cl)cc2)C(=O)O)C[C@@H]2CCCC[C@@H]21
B5: Apelin polypeptide SEQ ID NO: 390 (peptide)
peptide: Tridecanoyl-[γGlu][AEEA][AEEA]QRP[NMeR][Cha]SHKG[Oic][Nle]P[Phe(4-Cl)]-OH
SMILES: CCCCCCCCCCCCC(=O)N[C@@H](CCC(=O)NCCOCCOCC(=O)NCCOCCOCC(=O)N[C@@H](CCC(N)=O)C(=O)N[C@@H](CCCNC(=N)N)C(=O)N1CCC[C@H]1C(=O)N(C)[C@@H](CCCNC(=N)N)C(=O)N[C@@H](CC1CCCCC1)C(=O)N[C@@H](CO)C(=O)N[C@@H](Cc1c[nH]cn1)C(=O)N[C@@H](CCCCN)C(=O)NCC(=O)N1[C@H](C(=O)N[C@@H](CCCC)C(=O)N2CCC[C@H]2C(=O)N[C@@H](Cc2ccc(Cl)cc2)C(=O)O)C[C@@H]2CCCC[C@@H]21)C(=O)O
B6: SEQ ID NO: 291 (peptide)
peptide: {HOOC(CH2)8CO}-[γGlu][AEEA][AEEA][hArg][dR]Q[hArg]P[dR][NMeL]SHKG[Oic][Phe(4-I)]P[dBip]-OH
SMILES: CC(C)C[C@@H](C(=O)N[C@@H](CO)C(=O)N[C@@H](Cc1c[nH]cn1)C(=O)N[C@@H](CCCCN)C(=O)NCC(=O)N1[C@H](C(=O)N[C@@H](Cc2ccc(I)cc2)C(=O)N2CCC[C@H]2C(=O)N[C@H](Cc2ccc(-c3ccccc3)cc2)C(=O)O)C[C@@H]2CCCC[C@@H]21)N(C)C(=O)[C@@H](CCCNC(=N)N)NC(=O)[C@@H]1CCCN1C(=O)[C@H](CCCCNC(=N)N)NC(=O)[C@H](CCC(N)=O)NC(=O)[C@@H](CCCNC(=N)N)NC(=O)[C@H](CCCCNC(=N)N)NC(=O)COCCOCCNC(=O)COCCOCCNC(=O)CC[C@H](NC(=O)CCCCCCCCC(=O)O)C(=O)O
B7: SEQ ID NO: 289 (peptide)
peptide: {HOOC(CH2)8CO}-[γGlu][AEEA][AEEA][hArg][dR]Q[hArg]P[dR][NMeL]SHKG[Oic][Phe(4-I)]P[dBip]-OH
SMILES: CC(C)C[C@@H](C(=O)N[C@@H](CO)C(=O)N[C@@H](Cc1c[nH]cn1)C(=O)N[C@@H](CCCCN)C(=O)NCC(=O)N1[C@H](C(=O)N[C@@H](Cc2ccc(I)cc2)C(=O)N2CCC[C@H]2C(=O)N[C@H](Cc2ccc(-c3ccccc3)cc2)C(=O)O)C[C@@H]2CCCC[C@@H]21)N(C)C(=O)[C@@H](CCCNC(=N)N)NC(=O)[C@@H]1CCCN1C(=O)[C@H](CCCCNC(=N)N)NC(=O)[C@H](CCC(N)=O)NC(=O)[C@@H](CCCNC(=N)N)NC(=O)[C@H](CCCCNC(=N)N)NC(=O)COCCOCCNC(=O)COCCOCCNC(=O)CC[C@H](NC(=O)CCCCCCCCC(=O)O)C(=O)O

What follows are binders tested against T1, rat APJ receptor (assay: cell-based or functional assay).

EC50 Rat APJ Receptor (GTPγS assay) [nM] | Binder
4.77 | B1
5.42 | B2
2.68 | B3
0.511 | B4
0.57 | B5

The binders below were run against T2, human APJ receptor (assay: cell-based or functional assay).

EC50 Human APJ Receptor (GTPγS assay) [nM] | Binder
16.7 | B1
1.9 | Tridecanoyl-[AC4Abu″][AEEA][AEEA]QR[β3hP][NMeR][Cha]SHKG[Oic][Nle]P[Phe(4-Cl)]-OH (reading uncertain) [Apelin polypeptide SEQ ID NO: 441]
6.12 | B2
0.535 | XXXQRPRLSHKGPXPF ({TDA}[AC4Abu][Aeea][Aeea]Q[hArg]P[NMeArg][BLeu]SHKGP[Nle]P[4-Cl-F]{COOH}) [Apelin polypeptide SEQ ID NO: 383]
2.47 | B3
0.41 | Tridecanoyl-[γGlu][AEEA][AEEA][dQ]RP[NMeR][Cha]SHKG[Oic][Nle][Aib][Phe(4-Cl)]-OH [Apelin polypeptide SEQ ID NO: 540]
1 | B4
0.0461 | Tridecanoyl-[AC4Abu″][AEEA][AEEA]QRP[NMeR]LSH[Nle]GP[Nle]P[Phe(4-Cl)]-OH (reading uncertain) [Apelin polypeptide SEQ ID NO: 466]
0.11 | B5
0.469 | Tridecanoyl-[AC4Abu″][AEEA][AEEA]QRP[NMeR][Cha]SHKG[Oic][Nle][Aib][Phe(4-Cl)]-OH (reading uncertain) [Apelin polypeptide SEQ ID NO: 382]
0.0862 | XXXQRPRLSHKGPXPF ({TDA}[AC4Abu][Aeea][Aeea]QR[aMePro][hArg][aMeLeu]SHKGP[Nle]P[4-Cl-F]{COOH}) [Apelin polypeptide SEQ ID NO: 482]

The binders below were run against T3, rat APJ receptor (assay: cell-based or functional assay).

EC50 Rat APJ Receptor [nM] | Binder
1.39 | XXXQRPRLSHKGPXPF ({Succinicacid}[AC4Abu][Aeea][Aeea]QRP[NMeArg]LSHKGP[Nle]P[4-Cl-F]{COOH}) [SEQ ID NO: 497]
2.47 | B6
0.486 | Palmitoyl-[AC4Abu″][AEEA][AEEA][dQ]RP[NMeR][αMeL]S[Dap]KG[Oic][Nle][β3hP][Phe(4-Cl)]-OH (reading uncertain) [SEQ ID NO: 630]
0.467 | XXXQRPRLSHKGPXPF ({Subericacid}[AC4Abu][Aeea][Aeea]QRP[NMeArg]LSHKGP[Nle]P[4-Cl-F]{COOH}) [SEQ ID NO: 508]
1.3 | B7
0.128 | XXXQRPRLSHKGPXPF ({TDA}[AC4Abu][Aeea][Aeea][BhGln]RP[NMeArg]LSHKGP[Nle]P[4-Cl-F]{COOH}) [SEQ ID NO: 463]
9.15 | XXXQRPRLSHKGPXPF ({hexanoyl}[AC4Abu][Aeea][Aeea]QRP[hArg][aMeLeu]SHKGP[Nle]P[4-Cl-F]{COOH}) [SEQ ID NO: 559]
0.231 | XXXQRPRLSHKGPXPF ({Palm}[AC4Abu][Aeea][Aeea]QRP[NMeArg]LSHKGP[Nle]P[4-Cl-F]{COOH}) [SEQ ID NO: 593]
0.528 | XXXQRPRLSHKGPXPF ({St}[AC4Abu][Aeea][Aeea]QRP[NMeArg]LSHKGP[Nle]P[4-Cl-F]{COOH}) [SEQ ID NO: 594]
0.215 | Tridecanoyl-[AC4Abu″][AEEA][AEEA][hArg][hArg]Q[hArg]P[NMeR][Cha]SHKG[Oic][Nle]P[Phe(4-Cl)]-OH (reading uncertain) [SEQ ID NO: 309]
0.598 | XXXQRPRLSHKGPXPF ({Myristyl-NH}[AC4Abu][Aeea][Aeea]QRP[NMeArg]LSHKGP[Nle]P[4-Cl-F]{COOH}) [SEQ ID NO: 592]
6.12 | XXXQRPRLSHKGPXPF ({ODDA}[AC4Abu][Aeea][Aeea]QRP[NMeArg]LSHKGP[Nle]P[4-Cl-F]{COOH}) [SEQ ID NO: 513]
